Experimental data: patent US20230272415

Tests used:
Test in all cases: cell_activity
[1] = tested on: ZFN 59581 (synthetic construct); settings: pair with 59580; 6 ug mRNA, activated T cells; 83 at 2 ug, 72 at 0.5 ug
[2] = tested on: ZFN 59440 (synthetic construct); settings: pair with 59441; 6 ug mRNA, activated T cells; 82 at 2 ug, 59 at 0.5 ug
[3] = tested on: ZFN 59580 (synthetic construct); settings: pair with 59581; 6 ug mRNA, activated T cells; 83 at 2 ug, 72 at 0.5 ug
[4] = tested on: ZFN 59489 (synthetic construct); settings: pair with 59488; 6 ug mRNA, activated T cells; 84 at 2 ug, 60 at 0.5 ug
[5] = tested on: ZFN 59557 (synthetic construct); settings: pair with 59558; 6 ug mRNA, activated T cells; 80 at 2 ug, 55 at 0.5 ug
[6] = tested on: ZFN 59558 (synthetic construct); settings: pair with 59557; 6 ug mRNA, activated T cells; 80 at 2 ug, 55 at 0.5 ug
[7] = tested on: ZFN 59488 (synthetic construct); settings: pair with 59489; 6 ug mRNA, activated T cells; 84 at 2 ug, 60 at 0.5 ug
[8] = tested on: ZFN 59441 (synthetic construct); settings: pair with 59440; 6 ug mRNA, activated T cells; 82 at 2 ug, 59 at 0.5 ug

ATAGTGCTGCACAAGGCTGACCACATCC (double strand) [CISH exon 3 target of 59581]
activity [1]: 82 % cleavage

CCAGCAAAGGACGAGGTCTAGAAGGCAG (double strand) [CISH exon 2 target of 59440]
activity [2]: 84 % cleavage

CCGGAAAGGCCAGGATGCGTGGCCTGGA (double strand) [CISH exon 3 target of 59580]
activity [3]: 82 % cleavage

GAGGAGGTGGCAGAGGGTACCCCAGCCC (double strand) [CISH exon 2 target of 59489]
activity [4]: 89 % cleavage

GAGTCCAGACGGAAGCTGGAGTCGGCAT (double strand) [CISH exon 3 target of 59557]
activity [5]: 84 % cleavage

GATGCGTGGCCTGGACAAGCAGTTGGAG (double strand) [CISH exon 3 target of 59558]
activity [6]: 84 % cleavage

GGAAGGCCCCAGCAGGCAAGGGCTGCAT (double strand) [CISH exon 2 target of 59488]
activity [7]: 89 % cleavage

GTGGAGCGGACTGGGCAGCGGCCCCTGT (double strand) [CISH exon 2 target of 59441]
activity [8]: 84 % cleavage
